Reference: patent US20120148565

Assays:
[1] = biological target: GST fused WWP-1 (C. elegans HECT E3 ubiquitin ligase WWP-1, full length, wild type, N-terminal GST from pGEX-KG)
Sequence of GST fused WWP-1 (C. elegans HECT E3 ubiquitin ligase WWP-1, full length, wild type, N-terminal GST from pGEX-KG) (chain, as listed by the source): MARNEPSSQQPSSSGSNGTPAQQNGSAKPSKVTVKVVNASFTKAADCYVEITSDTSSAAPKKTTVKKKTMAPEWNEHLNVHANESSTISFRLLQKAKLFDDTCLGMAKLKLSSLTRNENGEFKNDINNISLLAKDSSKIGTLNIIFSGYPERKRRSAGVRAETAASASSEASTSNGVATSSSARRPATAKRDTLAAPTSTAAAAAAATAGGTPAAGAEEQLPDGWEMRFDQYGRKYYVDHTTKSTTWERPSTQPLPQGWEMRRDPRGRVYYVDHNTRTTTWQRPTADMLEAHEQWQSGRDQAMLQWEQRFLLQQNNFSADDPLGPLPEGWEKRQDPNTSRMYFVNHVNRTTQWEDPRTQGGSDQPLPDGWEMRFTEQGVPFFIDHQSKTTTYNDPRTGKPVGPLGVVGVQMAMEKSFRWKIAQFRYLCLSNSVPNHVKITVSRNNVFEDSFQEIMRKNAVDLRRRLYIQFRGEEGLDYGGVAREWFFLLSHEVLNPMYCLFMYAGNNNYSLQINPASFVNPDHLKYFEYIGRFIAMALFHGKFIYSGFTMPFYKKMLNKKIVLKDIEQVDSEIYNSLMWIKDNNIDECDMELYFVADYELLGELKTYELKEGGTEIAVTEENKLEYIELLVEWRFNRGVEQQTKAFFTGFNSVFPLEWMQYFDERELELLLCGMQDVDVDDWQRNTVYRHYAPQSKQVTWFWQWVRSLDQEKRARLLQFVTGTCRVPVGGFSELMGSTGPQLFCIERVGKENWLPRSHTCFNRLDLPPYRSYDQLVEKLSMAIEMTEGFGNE

B1: recombinant UBC-18 (C. elegans E2 ubiquitin conjugating enzyme, GST tag removed by thrombin cleavage) (protein)
chain: MSATRRLQKELGDLKNCGVKAYENVECEETNLLKWTVLLIPDKEPYNKGAFKVGITFPVDYPFKPPKVAFETKIYHPNVDEEGKFCLPIVTAENWKPATKTEQVMMALLSLINEPEPSHPIRADVAEEFQKDHKKFMKTAEEHTRKHAEKRPE
- in vitro ubiquitin conjugation reaction, SDS/PAGE with or without beta-mercaptoethanol (Flag tagged ubiquitin): UBC-18 is indeed a functional E2 and is capable of forming a thiol ester bond with ubiquitin
- in vitro ubiquitination assay of WWP-1 with embryo extract from ubc-18(ku354) mutant worms, recombinant UBC-18 added back [1]: ligase activity was restored with the addition of recombinant UBC-18
- in vitro ubiquitination assay using purified components (anti-Flag immunoblot) [1]: WWP-1 exhibited ubiquitin ligase activity in an E1 and UBC-18 dependent manner
